This assay addresses T1, human IL-2 receptor (human, UniProt P01589 22-272; P14784 27-551; P31785 23-369).
T1 construct: whole, on cells; also called IL-2Rα, IL-2Rβ, IL-2Rγ; HEK-Blue IL-2 cells
T1 sequence (looked up) 1: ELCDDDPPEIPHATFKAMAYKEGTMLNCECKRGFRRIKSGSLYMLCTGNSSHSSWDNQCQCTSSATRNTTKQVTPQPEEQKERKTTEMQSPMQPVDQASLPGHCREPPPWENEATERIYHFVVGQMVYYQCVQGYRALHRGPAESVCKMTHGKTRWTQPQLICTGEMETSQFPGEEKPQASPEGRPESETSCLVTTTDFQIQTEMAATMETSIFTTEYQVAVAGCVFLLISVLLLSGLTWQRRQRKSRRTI
T1 sequence (looked up) 2: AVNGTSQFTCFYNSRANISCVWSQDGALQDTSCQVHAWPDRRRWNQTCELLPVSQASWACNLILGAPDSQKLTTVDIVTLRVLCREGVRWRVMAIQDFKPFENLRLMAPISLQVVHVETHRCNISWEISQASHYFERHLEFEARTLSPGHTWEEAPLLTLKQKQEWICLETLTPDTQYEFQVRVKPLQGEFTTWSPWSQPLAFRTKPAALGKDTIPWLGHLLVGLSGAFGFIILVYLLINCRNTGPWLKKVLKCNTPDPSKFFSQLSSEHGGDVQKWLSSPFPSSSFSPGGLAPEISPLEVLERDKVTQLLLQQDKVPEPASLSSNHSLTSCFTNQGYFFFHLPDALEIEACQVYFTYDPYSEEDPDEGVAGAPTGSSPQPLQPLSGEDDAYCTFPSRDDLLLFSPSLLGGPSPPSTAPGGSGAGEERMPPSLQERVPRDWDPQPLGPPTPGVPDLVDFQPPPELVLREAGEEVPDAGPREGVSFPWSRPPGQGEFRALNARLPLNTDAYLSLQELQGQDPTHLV
T1 sequence (looked up) 3: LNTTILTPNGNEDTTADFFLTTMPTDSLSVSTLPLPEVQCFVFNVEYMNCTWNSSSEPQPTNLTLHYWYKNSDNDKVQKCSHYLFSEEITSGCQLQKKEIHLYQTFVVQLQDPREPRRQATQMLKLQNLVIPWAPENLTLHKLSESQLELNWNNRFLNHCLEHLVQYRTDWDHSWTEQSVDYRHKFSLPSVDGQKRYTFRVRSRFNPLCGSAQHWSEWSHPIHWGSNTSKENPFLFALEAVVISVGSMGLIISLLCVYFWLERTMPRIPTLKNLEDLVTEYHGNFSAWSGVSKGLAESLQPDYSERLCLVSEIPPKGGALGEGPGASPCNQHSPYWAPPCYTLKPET
The experiment in a line: FACS on HEK-Blue IL-2 cells (IL-2 receptor, no PD-1).

B1: ligand-IL-2 mutant-PD-L2-Fc (Fc fusion)
chain 1: LFTVTVPKELYIIEHGSNVTLECNFDTGSHVNLGAITASLQKVENDTSPHRERATLLEEQLPLGKASFHIPQVQVRDEGQYQCIIIYGVAWDYKYLTLKVKASYRKINTHILKVPETDEVELTCQATGYPLAEVSWPNVSVPANTSHSRTPEGLYQVTSVLRLKPPPGRNFSCVFWNTHVRELTLASIDLQSQMEPRTHPTGGGGSAPTSSSTKKTQLQLEHLLLDLQMILNGINNYKNPKLTDMLTFEFYMPKKATELKHLQCLERELKPLEEVLNLAQSKNFHLRPRDLISNINVIVLELKGSETTFMCEYADETATIVEFLNRWITFCQSIISTLTDKTHTCPPCPAPEDEGGPSVFLFPPKPKDTLMISRTPEVTCVVVDVSHEDPEVKFNWYVDGVEVHNAKTKPREEQYNSTYRVVSVLTVLHQDWLNGKEYKCKVSNKALPAPIEKTISKAKGQPREPQVYVYPPSREEMTKNQVSLTCLVKGFYPSDIAVEWESNGQPENNYKTTPPVLDEDGSFALVSKLTVDKSRWQQGNVFSCSVMHEALHNHYTQKSLSLSPGK
chain 2: LFTVTVPKELYIIEHGSNVTLECNFDTGSHVNLGAITASLQKVENDTSPHRERATLLEEQLPLGKASFHIPQVQVRDEGQYQCIIIYGVAWDYKYLTLKVKASYRKINTHILKVPETDEVELTCQATGYPLAEVSWPNVSVPANTSHSRTPEGLYQVTSVLRLKPPPGRNFSCVFWNTHVRELTLASIDLQSQMEPRTHPTGGGGSDKTHTCPPCPAPEKKGGPSVFLFPPKPKDTLMISRTPEVTCVVVDVSHEDPEVKFNWYVDGVEVHNAKTKPREEQYNSTYRVVSVLTVLHQDWLNGKEYKCKVSNKALPAPIEKTISKAKGQPREPQVYVLPPSREEMTKNQVSLLCLVKGFYPSDIAVEWESNGQPENRYMTWPPVLDSDGSFFLYSKLTVDKSRWQQGNVFSCSVMHEALHNHYTQKSLSLSPGK
notes: also called IL-2(R38D/K43E/E61R)/PD-L2-Fc immunocytokine; construct #11
Take B1: the binding result is reported as “no binding”.

These data come from patent US20230167164A1 (IMMUNOWAKE, published 2023).
